For this assay, the target named is Haloferax volcanii deoxyhypusine synthase (T7-His-DHS) (Haloferax volcanii). Description: SEC; Sephacryl S-200 HR gel filtration column equilibrated with buffer A (20 mM Tris-HCl pH 8, 2 M NaCl), flow rate 0.3 mL/min; oligomer size from the estimated molecular weight.

In the case of “Haloferax volcanii deoxyhypusine synthase (T7-His-DHS) (enzyme)”, the stoichiometry N (in general, a count of units in the complex or per binding partner) is 4.

Source of the values: article PMC5178350.
